# Literature values in paper PMC6092819.
# Target: Kv1.3 (Homo sapiens) (UniProt P22001)
# Chain of UniProt P22001 (P22001 whole entry): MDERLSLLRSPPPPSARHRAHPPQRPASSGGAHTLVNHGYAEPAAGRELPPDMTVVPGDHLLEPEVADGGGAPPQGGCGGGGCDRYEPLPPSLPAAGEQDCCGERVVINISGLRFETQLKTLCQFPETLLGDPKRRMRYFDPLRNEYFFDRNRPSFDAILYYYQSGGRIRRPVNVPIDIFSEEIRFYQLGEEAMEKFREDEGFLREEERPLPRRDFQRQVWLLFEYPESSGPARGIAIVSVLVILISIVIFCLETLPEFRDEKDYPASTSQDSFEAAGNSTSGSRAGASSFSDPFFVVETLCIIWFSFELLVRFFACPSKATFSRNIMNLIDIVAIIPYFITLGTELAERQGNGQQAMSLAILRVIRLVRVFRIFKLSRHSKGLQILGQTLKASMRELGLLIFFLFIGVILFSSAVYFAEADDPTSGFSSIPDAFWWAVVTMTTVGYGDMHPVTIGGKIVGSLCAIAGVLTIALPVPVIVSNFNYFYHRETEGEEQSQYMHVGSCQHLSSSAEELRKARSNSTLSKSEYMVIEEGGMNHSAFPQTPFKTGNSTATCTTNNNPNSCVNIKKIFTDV
substance,measurement,value
ShK (from UniProt P29187),Kd,0.01 nM
